Measurements: US20190016816A1 (APTEVO RESEARCH AND DEVELOPMENT, published 2019)

How the values were obtained:
[1] = target: T1, human 5T4 on cells (human, UniProt Q13641 32-420); experiment: flow cytometry, MDA.MB-231 cells, PE goat anti-human Fc
T1 construct: also called TPBG; hu5T4
T1 sequence: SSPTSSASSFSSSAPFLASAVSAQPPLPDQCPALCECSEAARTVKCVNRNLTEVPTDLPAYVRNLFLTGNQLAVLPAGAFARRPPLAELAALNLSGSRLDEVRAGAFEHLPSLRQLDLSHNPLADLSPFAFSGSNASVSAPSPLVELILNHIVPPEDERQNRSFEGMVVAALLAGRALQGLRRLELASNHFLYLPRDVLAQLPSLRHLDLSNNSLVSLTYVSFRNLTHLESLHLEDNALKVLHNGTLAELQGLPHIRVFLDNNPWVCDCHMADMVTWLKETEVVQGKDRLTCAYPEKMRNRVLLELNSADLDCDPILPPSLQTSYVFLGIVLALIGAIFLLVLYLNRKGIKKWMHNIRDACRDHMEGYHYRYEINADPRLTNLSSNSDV
Procedure: (§1) A 3-fold titration of ALG.APV-210 construct (ranging from 100 nM to 0.14 nM) was incubated with the human 5T4-expressing cell lines for 40 minutes in FACS buffer at 4° C., washed 3 times, and detected with PE-labeled, goat-anti-human Fc secondary antibody (Jackson ImmunoResearch). Binding of ALG.APV-210 was detected by flow cytometry. All samples were run in duplicates. Nonlinear regression analysis to determine EC₅₀ values was performed in GraphPad Prism 6® graphing and statistics software.

[2] = target: T1, human 5T4 on cells; experiment: flow cytometry, H1975 cells, PE goat anti-human Fc
Procedure: as §1

[3] = target: T2, cynomolgus CD137 on cells (cynomolgus macaque, UniProt A9YYE7 24-254); experiment: flow cytometry, CD8 T cells gated from CD3-stimulated cynomolgus PBMC, biotinylated antibody + streptavidin-APC, exp 1, n=3 donors
T2 construct: whole, on cells; also called CHO-K1/cynomolgus CD137 cell line; cynomolgus monkey CD137 on CD3-stimulated primary CD8 T cells
T2 sequence (A9YYE7 entry or part of it): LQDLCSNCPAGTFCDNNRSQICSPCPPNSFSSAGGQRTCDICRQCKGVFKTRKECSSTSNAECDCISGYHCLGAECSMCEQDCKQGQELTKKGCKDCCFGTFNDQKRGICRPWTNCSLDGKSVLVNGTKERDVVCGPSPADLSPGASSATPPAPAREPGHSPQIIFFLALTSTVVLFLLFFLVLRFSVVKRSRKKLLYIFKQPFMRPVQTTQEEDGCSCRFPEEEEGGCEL
Procedure: Following 48 h of incubation with or without CD3, human and cynomolgus PBMC were harvested, pooled, recounted and diluted in FACS buffer (PBS+0.5% BSA, 0.05% NaN₃) to a concentration of 5×10⁶ cells/mL. 50 μL (0.25×10⁶ cells) of cell solution was added to a 96-well FACS staining plate (Falcon #351190). Following 10 min of Fc-blocking in RT using Beriglobin (hIgG, 200 μg/mL), cells were washed in FACS buffer and then incubated for 1 h in 4° C. with 100 μL of the biotinylated ALG.APV-210 or negative control. […] Cells were analysed for ALG.APV-210 binding using flow cytometry by gating on viable, single cells expressing CD3 and CD8. MFI values (FMO subtracted) from 2 independent experiments as well as normalized pooled data from 2 experiments and EC₅₀-values were determined and plotted using GraphPad Prism 7, non-linear regression log (agonist) vs. normalized response—variable slope, n=6 donors/group.
In ELISA tests, the binding of biotinylated ALG.APV-210 to CD137 was similar to that of the non-biotinylated ALG.APV-210 (0.6 nM vs. 0.7 nM). The binding (EC₅₀) of the biotinylated ALG.APV-210 to its immunomodulatory target CD137 when expressed on activated primary human and cynomolgus CD8 T cells from CD3 stimulated PBMC was assessed and compared between the two species as well as to unstimulated cells. […]

[4] = target: T2, cynomolgus CD137 on cells; experiment: flow cytometry, CHO-K1 cells expressing cynomolgus CD137, PE anti-human IgG Fc secondary, MFI (median)
Procedure: Binding studies on CHO-K1 cells lines expressing CD137 were performed by standard flow cytometry-based staining procedures. CHO-K1 cells (generated by Alligator) were transfected with human or cynomolgus macaque CD137. A typical experiment would label approximately 100,000 cells per well, in 96-well plates, with a range of 100 nM to 0.05 nM binding molecule in 50 μL of saline buffer with 2% BSA and 2 mM EDTA, for 30 min on ice, followed by washes and incubation with PE-labeled secondary antibody, goat anti-human IgG Fcγ ([…]), for 20 minutes on ice. Signal from bound molecules was detected using a LSR-II™ or a Symphony A3 flow cytometer (BD Biosciences) and analyzed by FlowJo flow cytometry analysis software. Median fluorescence intensity (MFI-median) of bound molecules on live cells was determined after exclusion of doublets cells. Nonlinear regression analysis to determine EC₅₀ values was performed in GraphPad Prism 6® graphing and statistics software.

B1: ALG.APV-210 (bispecific antibody)
chain: EVQLLESGGGLVQPGGSLRLSCAASGFTFSHGSMYWVRQAPGKGLEWVSSISSGSGSTYYADSVKGRFTISHDNSKNTLYLQMNSLRAEDTAVYYCARSSYYGSYYSIDYWGQGTLVTVSSGGGGSGGGGSGGGGSGGGGSDIQMTQSPSSLSASVGDRVTITCRASQSISSYLNWYQQKPGKAPKLLIYAASSLQSGVPSRFSGSGSGTDFTLTISSLQPEDFATYYCQQYYDNLPTFGQGTKLEIKEPKSSDKTHTCPPCPAPEAAGAPSVFLFPPKPKDTLMISRTPEVTCVVVDVSHEDPEVKFNWYVDGVEVHNAKTKPREEQYNSTYRVVSVLTVLHQDWLNGKEYKCAVSNKALPAPIEKTISKAKGQPREPQVYTLPPSRDELTKNQVSLTCLVKGFYPSDIAVEWESNGQPENNYKTTPPVLDSDGSFFLYSKLTVDKSRWQQGNVFSCSVMHEALHNHYTQKSLSLSPGSGGGGSGGGGSGGGGSPSEVQLLESGGGLVQPGGSLRLSCAASGFTFSSYAMSWVRQAPGKCLEWVSAISGSGGSTYYADSVKGRFTISRDNSKNTLYLQMNSLRAEDTAVYYCARYYGGYYSAWMDYWGQGTLVTVSSGGGGSGGGGSGGGGSGGGGSDIQMTQSPSSLSASVGDRVTITCRASQSISSFLNWYQQKPGKAPKLLIYAASSLQSGVPSRFSGSGSGTDFTLTISSLQPEDSATYYCQQTYGYLHTFGCGTKLEIKR
notes: Optimized ADAPTIR scFv-Fc-scFv homodimer with stabilizing disulfide in the 1210 scFv; also called 5T4-CD137 bispecific antibody
With B1 the EC50 [1] was 21 nM and the EC50 [2] was 20 nM.

B2: biotinylated ALG.APV-210 (bispecific antibody)
chain: B1 chain
notes: also called ALG.APV-210 (biotinylated for FACS detection)
B2 was tested, and the “EC50 (read off the curve)” value [3] was about 0.3 nM.

B3: ALG.APV-187 (bispecific antibody)
chain: EVQLLESGGGLVQPGGSLRLSCAASGFTFSHGSMYWVRQAPGKGLEWVSSISSGSGSTYYADSVKGRFTISHDNSKNTLYLQMNSLRAEDTAVYYCARSSYYGSYYSIDYWGQGTLVTVSSGGGGSGGGGSGGGGSGGGGSDIQMTQSPSSLSASVGDRVTITCRASQSISSYLNWYQQKPGKAPKLLIYAASSLQSGVPSRFSGSGSGTDFTLTISSLQPEDFATYYCQQYYDNLPTFGQGTKLEIKSSEPKSSDKTHTCPPCPAPEAAGAPSVFLFPPKPKDTLMISRTPEVTCVVVDVSHEDPEVKFNWYVDGVEVHNAKTKPREEQYNSTYRVVSVLTVLHQDWLNGKEYKCAVSNKALPAPIEKTISKAKGQPREPQVYTLPPSRDELTKNQVSLTCLVKGFYPSDIAVEWESNGQPENNYKTTPPVLDSDGSFFLYSKLTVDKSRWQQGNVFSCSVMHEALHNHYTQKSLSLSPGSGGGGSGGGGSGGGGSPSEVQLLESGGGLVQPGGSLRLSCAASGFTFSSYAMSWVRQAPGKCLEWVSAISGSGGSTYYADSVKGRFTISRDNSKNTLYLQMNSLRAEDTAVYYCARYYGGYYSAWMDYWGQGTLVTVSSGGGGSGGGGSGGGGSGGGGSDIQMTQSPSSLSASVGDRVTITCRASQSISSFLNWYQQKPGKAPKLLIYAASSLQSGVPSRFSGSGSGTDFTLTISSLQPEDSATYYCQQTYGYLHTFGCGTKLEIKR
notes: Optimized ADAPTIR scFv-Fc-scFv homodimer with stabilizing disulfide in the 1210 scFv
With B3 the EC50 [4] was 1.7 nM.
